Experimental data reported in patent publication US20040092720A1 (US Dept. of Health and Human Services, published 2004).

B1: Peptide A7 (peptide)
peptide: AAGSHPSRWAGMGRR
B2: Peptide C7 (peptide)
peptide: SSFYRLRFELRYRAE
B3: Peptide A8 (peptide)
peptide: AAGSHPSRWAGMGR
B4: Peptide B34 (peptide)
peptide: PRSTPSLTTKAVLLVRKFQNA
notes: alanine-scan variant of the domain II 21-mer
B5: Peptide B42 (peptide)
peptide: PRSTPSLTTKAVALVRKFQNS
notes: as for B4
B6: Peptide B41 (peptide)
peptide: PRSTPSLTTKAVLAVRKFQNS
notes: as for B4
B7: Peptide B44 (peptide)
peptide: PRSTPSLTTAAVLLVRKFQNS
notes: as for B4
B8: Peptide B39 (peptide)
peptide: PRSTPSLTTKAVLLVAKFQNS
notes: as for B4
B9: Peptide B47 (peptide)
peptide: PRSTPSATTKAVLLVRKFQNS
notes: as for B4
B10: Peptide B36 (peptide)
peptide: PRSTPSLTTKAVLLVRKFANS
notes: as for B4
B11: Peptide B43 (peptide)
peptide: PRSTPSLTTKAALLVRKFQNS
notes: as for B4
B12: Peptide B45 (peptide)
peptide: PRSTPSLTAKAVLLVRKFQNS
notes: as for B4
B13: Peptide B46 (peptide)
peptide: PRSTPSLATKAVLLVRKFQNS
notes: as for B4
B14: Peptide B37 (peptide)
peptide: PRSTPSLTTKAVLLVRKAQNS
notes: as for B4
B15: Peptide B40 (peptide)
peptide: PRSTPSLTTKAVLLARKFQNS
notes: as for B4
B16: Peptide B35 (peptide)
peptide: PRSTPSLTTKAVLLVRKFQAS
notes: as for B4
B17: Peptide B38 (peptide)
peptide: PRSTPSLTTKAVLLVRAFQNS
notes: as for B4
B18: Peptide C25 (peptide)
peptide: ELRYRAERSKTFT
B19: Peptide C12 (peptide)
peptide: SSFYRLRFEL
B20: Peptide C29 (peptide)
peptide: RAERSKTFT
B21: Peptide A4 (peptide)
peptide: AAGSHPSRWAGMGRRLLL
B22: Peptide C21 (peptide)
peptide: RLRFELRYRAERSKTFT
B23: Peptide A5 (peptide)
peptide: AAGSHPSRWAGMGRRLL
B24: Peptide C23 (peptide)
peptide: RFELRYRAERSKTFT
B25: Peptide A11 (peptide)
peptide: AAGSHPSRWAG
B26: Peptide C31 (peptide)
peptide: ERSKTFT
notes: also called ERSKTFT
B27: Peptide C3 (peptide)
peptide: SSFYRLRFELRYRAERSKT
B28: Peptide C16 (peptide)
peptide: SSFYRL
notes: also called SSFYRL
B29: Peptide C13 (peptide)
peptide: SSFYRLRFE
B30: Peptide C18 (peptide)
peptide: SFYRLRFELRYRAERSKTFT
B31: Peptide C9 (peptide)
peptide: SSFYRLRFELRYR
B32: Peptide C11 (peptide)
peptide: SSFYRLRFELR
B33: Peptide C24 (peptide)
peptide: FELRYRAERSKTFT
B34: Peptide A10 (peptide)
peptide: AAGSHPSRWAGM
B35: Peptide C5 (peptide)
peptide: SSFYRLRFELRYRAERS
B36: Peptide C26 (peptide)
peptide: LRYRAERSKTFT
B37: Peptide C22 (peptide)
peptide: LRFELRYRAERSKTFT
B38: Peptide C32 (peptide)
peptide: RSKTFT
notes: also called RSKTFT
B39: Peptide A3 (peptide)
peptide: AAGSHPSRWAGMGRRLLLR
B40: Peptide C15 (peptide)
peptide: SSFYRLR
notes: also called SSFYRLR
B41: Peptide C20 (peptide)
peptide: YRLRFELRYRAERSKTFT
B42: Peptide C27 (peptide)
peptide: RYRAERSKTFT
B43: Peptide C6 (peptide)
peptide: SSFYRLRFELRYRAER
B44: Peptide C14 (peptide)
peptide: SSFYRLRF
B45: Peptide C30 (peptide)
peptide: AERSKTFT
B46: Peptide C34 (peptide)
peptide: SSFYRLRFELRYRAERSKTFA
B47: Peptide C43 (peptide)
peptide: SSFYRLRFELAYRAERSKTFT
notes: alanine-scan variant of the domain III 21-mer
B48: Peptide C42 (peptide)
peptide: SSFYRLRFELRARAERSKTFT
notes: as for B47
B49: Peptide C41 (peptide)
peptide: SSFYRLRFELRYAAERSKTFT
notes: as for B47
B50: Peptide C45 (peptide)
peptide: SSFYRLRFALRYRAERSKTFT
notes: as for B47
B51: Peptide C37 (peptide)
peptide: SSFYRLRFELRYRAERSATFT
notes: as for B47
B52: Peptide C44 (peptide)
peptide: SSFYRLRFEARYRAERSKTFT
notes: as for B47
B53: Peptide C36 (peptide)
peptide: SSFYRLRFELRYRAERSKAFT
notes: as for B47
B54: Peptide C38 (peptide)
peptide: SSFYRLRFELRYRAERAKTFT
notes: as for B47
B55: Peptide C46 (peptide)
peptide: SSFYRLRAELRYRAERSKTFT
notes: as for B47
B56: Peptide C39 (peptide)
peptide: SSFYRLRFELRYRAEASKTFT
notes: as for B47
B57: Peptide C35 (peptide)
peptide: SSFYRLRFELRYRAERSKTAT
notes: as for B47
B58: Peptide C40 (peptide)
peptide: SSFYRLRFELRYRAARSKTFT
notes: as for B47
B59: Peptide C47 (peptide)
peptide: SSFYRLAFELRYRAERSKTFT
notes: as for B47
B60: Peptide C8 (peptide)
peptide: SSFYRLRFELRYRA
B61: Peptide C19 (peptide)
peptide: FYRLRFELRYRAERSKTFT
B62: Peptide A9 (peptide)
peptide: AAGSHPSRWAGMG
B63: Peptide C28 (peptide)
peptide: YRAERSKTFT
B64: Peptide A2 (peptide)
peptide: AAGSHPSRWAGMGRRLLLRS
B65: Peptide C4 (peptide)
peptide: SSFYRLRFELRYRAERSK
B66: Peptide C10 (peptide)
peptide: SSFYRLRFELRY
B67: Peptide C2 (peptide)
peptide: SSFYRLRFELRYRAERSKTF

Biological target: T1, recombinant human IL-6 (human, UniProt P05231 30-212, labeled with radioactive iodine)
T1 construct: Labeled probe in solution, added to wells that carry the synthetic peptides; also called IL-6 ligand; Interleukin-6
Assay: radioiodinated IL-6 on peptide array
Experimental: Synthetic peptide arrays were constructed in 96-well microtiter plates in accordance with the method set forth in WO 91/02714 (Saxinger), and used to test the binding of recombinant human IL-6 that had been labeled with radioactive iodine (radiolabeling by standard methods). After incubating the radiolabeled IL-6 ligand in a well with each synthetic peptide, a washing step was performed to remove unbound label, and the relative level of radioactivity remaining in each well of the plate was evaluated to determine the relative affinity of each peptide for IL-6 ligand.

| Binder | Counts/minute bound [counts/minute] |
| --- | --- |
| B1 | 1340 |
| B2 | 1820 |
| B3 | 1480 |
| B4 | 11400 |
| B5 | 3840 |
| B6 | 3760 |
| B7 | 19500 |
| B8 | 10800 |
| B9 | 8570 |
| B10 | 10100 |
| B11 | 7160 |
| B12 | 7490 |
| B13 | 7680 |
| B14 | 11600 |
| B15 | 4540 |
| B16 | 13200 |
| B17 | 11100 |
| B18 | 2200 |
| B19 | 1030 |
| B20 | 1430 |
| B21 | 5280 |
| B22 | 5990 |
| B23 | 2750 |

| Binder | Counts/minute bound [counts/minute] |
| --- | --- |
| B24 | 5310 |
| B25 | 1430 |
| B26 | 1030 |
| B27 | 8210 |
| B28 | 865 |
| B29 | 1020 |
| B30 | 12800 |
| B31 | 2170 |
| B32 | 1130 |
| B33 | 5110 |
| B34 | 1440 |
| B35 | 4710 |
| B36 | 6380 |
| B37 | 9610 |
| B38 | 1340 |
| B39 | 8010 |
| B40 | 991 |
| B41 | 7570 |
| B42 | 3150 |
| B43 | 2650 |
| B44 | 952 |
| B45 | 1200 |
| B46 | 17000 |

| Binder | Counts/minute bound [counts/minute] |
| --- | --- |
| B47 | 7550 |
| B48 | 17500 |
| B49 | 6740 |
| B50 | 26800 |
| B51 | 7220 |
| B52 | 14100 |
| B53 | 15000 |
| B54 | 12300 |
| B55 | 13400 |
| B56 | 3430 |
| B57 | 14800 |
| B58 | 17300 |
| B59 | 9760 |
| B60 | 2510 |
| B61 | 10100 |
| B62 | 1470 |
| B63 | 2400 |
| B64 | 9760 |
| B65 | 7620 |
| B66 | 1350 |
| B67 | 13800 |
